In the DeepSol protein solubility set:

Test: soluble on expression in E. coli; label from the status in PepcDB or PDB records

Soluble on expression in E. coli, not soluble:
MGSDKIHHHHHHMAKIHMVLQGKGGVGKSMIAATIAQYKAGKGQKPLCIDTDPVNATFEGYKALNVRRLNIMDGDEINTRNFDALVEMIASAEGDVIIDNGASSFVPLSHYLISNQVPALLQDMGHELVVHTVVTGGQALVDTVSGFAQLASQFPAECLFVVWLNPYWGPIEHEGKGFEQLKAYTTNKGRVSAIIQIPALKEETYGRDFAEMLQDRRTFDEALADSALTIMTRQRLKIVKTQLFAQLENAAVL
MTIDMRLRPPLQSWKSTAQFKEGTAYYPTRYGFPRPKSVGTQDIGDLLAEMDEADITWGVVMGRQSAPPHGIVPNEEISDFVRQHADRFVGFAGIDLRDIDKAVADLDGYARSDEFKGISIEPGAGFVPLYSDDPSLFPLYERAQELQLPLSITLSGYLSSMAGHPTSYGNPSPVATVARKFPRLKIVVSHAAWPNVMPMLEVAFLHDNVYVSPDLYMNHVHTPGAHEYINAAKFYLADRLLFGTAYPSRPLKESVAGFRQWDLDSELAEKILHRNAARLLGLELEHHHHHH
MASKKREVQLQSVVNSQNLWDEMLLNKGLTVIDVYQAWCGPCKAVQSLFRKLKNELNEDEILHFVVAEADNIVTLQPFRDKCEPVFLFSLNGKIIAKIQGANAPLINRKVITLIDEERKIVAGEMDRPQYVEIPLVDAIDEEYGEVQYESAAEVYNMAIIKPDAVLMRKNIEVREKIAKEGFVIEIQENLILPEEVVREFYTHIADQPDFEEFVVSMTNGLSCVLIVSQEDSEVIQEETLPQTDTEEEPGVLEEPHVRFAPVMIKKKRDSLQEYMDRQYMSDYCDVEDDAVKVFKLIDILFPDFKTMKSTNVQTTLALLHPDICEEEKDDVLNVIHNEGFTILMQRQIVLSEEEARTVCKIHENEEYFDNLIGHMTSNHSYVLALRRENGVEYWKTLIGPKTIEEAYASHPQSLCVQFASGNFPTNQFYGSSSKAAAEKEIAHFFPPQSTLALIKPHVTHKERIHRSSRR
MGAAAAPEVNMELVGHFGGTTDAVDVAGNYAYVGQGQDFLILDITNPSSPVLVSKIMTEGFVRDIKVSRNYAYVADDDNGLVIVDISNPSSPTLKGSYNIPGYTYCITVSGNYAYVADNDGLVIVDISNPSDPILKGRYAGPTGDVAVYGNYAYVADWGNGLMIVDISNPSSPVLKGSYDTAGDIYGVSISGNYAYVADGDTGLVIVDISNPSSPTLKGNYNTAGIACDVSVLGNYAYVADNDNGLVIVDISDPSSPVLKGNGSTTGYAHGIEVSGNYAYVANSNTGLVIVDISNPSSPTLKGSCDTIVRAKSIAVSGNYAYIADWDNGLVIVDISNPSSPFLKGSCDTPRSAQGVAVSGNYAYVADDDGLVIVDISNPSFPILNKSYNTGGWAQGITVSGNYAYVIDMANGIFIVDISNPSSPILEGMYDTSPIIIENYDYTGSIWSVSVSGNYAYVADEGNGLLIVDISNPSSPILKGSYDTAGLAYDVAVSGNYAYVADSKNGLAIIDISNPSSPILVGNYNTSGYAECVSISGNYAYVAVDDSLVVVDISNPSSPILKGLYAGSAGDIAVSGNYVYASEGVNGLVILKANPESAFTVADFSSNITSGYAPLSIQFNDHSQNATSWNWDFGDGYNSTNQNPIHTYSSAGTYTVNLTVINENRTASKVAKIFVLNTSLEHHHHHH
MGSDKIHHHHHHWFMPFDNWLYQLQNADPVEISSSGFEIAVIDYSKDGSESGEYSPEEIKIMVDAGVVPVAYVNIGQAEDYRFYWKESWYTNTPEWLGEEDPAWPGNYFVKYWYNEWKEIVFSYLDRVIDQGFKGIYLDRIDSFEYWAQEGVISRRSAARKMINFVLEIAEYVRERKPDMLIIPQNGENILDFDDGQLASTVSGWAVENLFYLKTIPLEENETKSRLEYLIRLNRKGKFILSVDYVDDGSDSFENISRILDYYEKAKRNGCIPYAARSDLELDEMNVIEGIQPPEALKDYESRTYR
MGSDKIHHHHHHILDSTIYLIGTAHFSKESQEDVSNTIRAVQPDFVMLELCPSRISIISMDEARLLSEAKDLNSQKIIQTMKQNGAIQGILHVLLLSMSAHVTRELSMAPGGEFRAAHRAAVATENCRVVLGDRPIQVTLQRALASLSIWQKIRFFFHVAFSHREKITAEEVERCKQRDLLEQLLAEMADDFPQLSQIFVEERDAYMTHALHMLVHRNSVEKRAQWLRGTTGQQFQPLTVVAVV

Soluble on expression in E. coli, soluble:
DIQMTQSPASLSASVGETVTITCRASGNIHNYLAWYQQKQGKSPQLLVYYTTTLADGVPSRFSGSGSGTQYSLKINSLQPEDFGSYYCQHFWSTPRTFGGGTKLEIKRADAAPTVSIFPPSSEQLTSGGASVVCFLNNFYPKDINVKWKIDGSERQNGVLNSWTDQDSKDSTYSMSSTLTLTKDEYERHNSYTCEATHKTSTSPIVKSFNRNEC
MNKLAVLYAEHIATLQKRTREIIERENLDGVVFHSGQAKRQFLDDMYYPFKVNPQFKAWLPVIDNPHCWIVANGTDKPKLIFYRPVDFWHKVPDEPNEYWADYFDIELLVKPDQVEKLLPYDKARFAYIGEYLEVAQALGFELMNPEPVMNFYHYHRAYKTQYELACMREANKIAVQGHKAARDAFFQGKSEFEIQQAYLLATQHSENDNPYGNIVALNENCAILHYTHFDRVAPATHRSFLIDAGANFNGYAADITRTYDFTGEGEFAELVATMKQHQIALMNQLAPGKLYGELHLDCHQRVAQTLSDFNIVDLSADEIVAKGITSTFFPHGLGHHIGLQVHDVGGFMADEQGAHQEPPEGHPFLRCTRKIEANQVFTIEPGLYFIDSLLGDLAATDNNQHINWDKVAELKPFGGIRIEDNIIVHEDSLENMTRELRLRLTTHSLRGLSAPQFSINDPAVMSEYSYPSEPLSYEEEIKKSTFIVHVRTRRILVRRRTLSPILIAVTPMPAITAGLM
MKETEILNRAYNYMCTYHKDDATGHDIAHINRVLRLATYIAEQEQSQHMLTIQLASLLHDTVDSKLTNHEKALTKLKSFLKDLQLPKEQQQHILHIIKHISYRHGQNNEVSLTLEGQIVRDADRLDAIGAIGIARTFQFAGHFNEPMWVEHSTKHITETDDAHYDQWSPSAIKHFYEKLLKLKSLMHTETAKQLAAQRHQYMENFINQFFEEWYFLEHHHHHH
MSLDLPSRPPAPPEGVIGRRIRYADALEPEREEWFVAGTELAEVTAPEAPTPRIETPADGMIIALDPDIPARNQKLILRARPARAGMSFLLDGRPVGPAETPVKWPPEPGGHVLKLMDDRGRTLDLVKFQVRGMREGHHHHHH
MAHHHHHHMEVREGEPPQSWTYKAVCMTLEKDDGVEQSGAPRLRLMVLTSEKGWPYSWRWKENKSTRDCHVNCEVDRVWRTVKGDLTKWFSRRAKNKLSPRRRLLVGTPWIGNSMAADSYLLYQLLHGDAEKLQVAVYSFGSQSFLFDKTTQAVREYVDTTKSKRVFFFWQL
MNRNRRDGPQRDVKRERRSRSRSPRRSRIGAAVGSNNGNSSSNNRMVFITNIAYEARWVDLKSLVREKGGEVAFCELLEDRNGKPKGNAVVEFETREGAEKCVENLQKFDWKGRTIIAKEIRDPNAFFRTIKTETGIDYLSRTGGGGAGGRGPPPKDLDRPTRTGTYDLFGLNMEFLRQHNIEPPLCERIFIANLAFNVGTDKLYEVFGMAGKITWMDFRIDKEGKSKGVCVIQYTHPIEAVQAVSMLNGQRLFDRNLVVKMDRFDKELEHKEGGLPRGLESIGMGLGAEGAPLSNVHGMFPGDASVPFTAPAAPFVGGPQVVSAGGFGGVVEQANFARSVMNNGPFGGNAGVGGAGGATFAQPDVFGVNGAGGLAGAATPQATRVIIIRNLPSDYTWQIVRDRVRNFGEVDSVDMMAPGAARIRFATFQDAERARAALYGSTVEGRMISVDYA
AIATANLAATDDWGELLDVLDPGDPTGSRVIARYDRLRVHREGLLHRSVHVCVVRSVPDWPAQVHGLRNTNYKLLLQRRSESKAIAPGCWDLSCAEHLRAGESFEGAAVRGLQEELGLALAPDQQTTPIHALDDGEPALQLYDYPSVGLTDYEWNRIYVVFVTDQADEALAKLKLDSAEVAQVRWITRESLQMELAENPSHFTPWFRDQARKHLLPSAYN
MSLTISNEDNMILMSRYPDKYFDLAIVDPPYGILNKTKRGGDYKFNMNEYSQWDIKPDQTYFNELFRVSKNQIIWGGNYFGELWLRSEYNKGFIIWDKNQPETLNNFSMAEMAWSSFDRPSKIFRFSVRKNRNKTHPTQKPVELYQWLLKMYAKQGDKILDTHLGSGTLAIACCIAQFDLTACEINSDYYQQSIEKIKNNLPEARISFGHPGYCIIEEGGSHHHHHH
